Target: SmCAMTA2, split-YFP fusion for BiFC (Solanum melongena (eggplant))

SmERF1, construct for BiFC (natural protein)
LUC/REN ratio of the SmCBF2 promoter-LUC reporter in N. benthamiana leaves when SmERF1-62-SK and SmCAMTA2-62-SK were co-present: 2 fold
